Experimental data from IntAct's records for PubMed 30559189.

B1: Lipoprotein lipase (Homo sapiens), P06858 (parent)
chain: MESKALLVLTLAVWLQSLTASRGGVAAADQRRDFIDIESKFALRTPEDTAEDTCHLIPGVAESVATCHFNHSSKTFMVIHGWTVTGMYESWVPKLVAALYKREPDSNVIVVDWLSRAQEHYPVSAGYTKLVGQDVARFINWMEEEFNYPLDNVHLLGYSLGAHAAGIAGSLTNKKVNRITGLDPAGPNFEYAEAPSRLSPDDADFVDVLHTFTRGSPGRSIGIQKPVGHVDIYPNGGTFQPGCNIGEAIRVIAERGLGDVDQLVKCSHERSIHLFIDSLLNEENPSKAYRCSSKEAFEKGLCLSCRKNRCNNLGYEINKVRAKRSSKMYLKTRSQMPYKVFHYQVKIHFSGTESETHTNQAFEISLYGTVAESENIPFTLPEVSTNKTYSFLIYTEVDIGELLMLKLKWKSDSYFSWSDWWSSPGFAIQKIRVKAGETQKKVIFCSREKVSHLQKGKAPAVFVKCHDKSLNKKSG
partner: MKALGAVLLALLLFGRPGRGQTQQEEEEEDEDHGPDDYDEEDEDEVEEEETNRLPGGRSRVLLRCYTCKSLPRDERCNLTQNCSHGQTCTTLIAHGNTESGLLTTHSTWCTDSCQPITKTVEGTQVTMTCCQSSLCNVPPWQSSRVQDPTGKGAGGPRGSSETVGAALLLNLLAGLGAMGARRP
B2: Glycosylphosphatidylinositol-anchored high density lipoprotein-binding protein 1 (Homo sapiens), Q8IV16 (parent)
chain: B1 partner
partner: B1 chain

Variants of: B1
Settings: with hdbp1_human GPIHBP1, Q8IV16

effect of a mutation on the interaction | Variant
disrupting interaction strength | MESKALLVLTLAVWLQSLTASRGGVAAADQRRDFIDIESKFALRTPEDTAEDTCHLIPGVAESVATCHFNHSSKTFMVIHGWTVTGMYESWVPKLVAALYKREPDSNVIVVDWLSRAQEHYPVSAGYTKLVGQDVARFINWMEEEFNYPLDNVHLLGYSLGAHAAGIAGSLTNKKVNRITGLDPAGPNFEYAEAPSRLSPDDADFVDVLHTFTRGSPGRSIGIQKPVGHVDIYPNGGTFQPGCNIGEAIRVIAERGLGDVDQLVKCSHERSIHLFIDSLLNEENPSKAYRCSSKEAFEKGLCLSCRKNRCNNLGYEINKVRAKRSSKMYLKTRSQMPYKVFHYQVKIHFSGTESETHTNQAFEISLYGTVAESENIPFTLPEVSTNKTYSFLIYTEVDIGELLMLKLKWKSDSYFSWSDWWSSPGFAIQKIRVKAGETQKKVIFSSREKVSHLQKGKAPAVFVKCHDKSLNKKSG [C445S]
disrupting interaction strength | MESKALLVLTLAVWLQSLTASRGGVAAADQRRDFIDIESKFALRTPEDTAEDTCHLIPGVAESVATCHFNHSSKTFMVIHGWTVTGMYESWVPKLVAALYKREPDSNVIVVDWLSRAQEHYPVSAGYTKLVGQDVARFINWMEEEFNYPLDNVHLLGYSLGAHAAGIAGSLTNKKVNRITGLDPAGPNFEYAEAPSRLSPDDADFVDVLHTFTRGSPGRSIGIQKPVGHVDIYPNGGTFQPGCNIGEAIRVIAERGLGDVDQLVKCSHERSIHLFIDSLLNEENPSKAYRCSSKEAFEKGLCLSCRKNRCNNLGYEINKVRAKRSSKMYLKTRSQMPYKVFHYQVKIHFSGTESETHTNQAFEISLYGTVAESENIPFTLPEVSTNKTYSFLIYTEVDIGELLRLKLKWKSDSYFSWSDWWSSPGFAIQKIRVKAGETQKKVIFCSREKVSHLQKGKAPAVFVKCHDKSLNKKSG [M404R]

Variants of: B1
Settings: with hdbp1_human GPIHBP1, Q8IV16
Remark: another data set of the same source

effect of a mutation on the interaction | Variant
disrupting interaction strength | MESKALLVLTLAVWLQSLTASRGGVAAADQRRDFIDIESKFALRTPEDTAEDTCHLIPGVAESVATCHFNHSSKTFMVIHGWTVTGMYESWVPKLVAALYKREPDSNVIVVDWLSRAQEHYPVSAGYTKLVGQDVARFINWMEEEFNYPLDNVHLLGYSLGAHAAGIAGSLTNKKVNRITGLDPAGPNFEYAEAPSRLSPDDADFVDVLHTFTRGSPGRSIGIQKPVGHVDIYPNGGTFQPGCNIGEAIRVIAERGLGDVDQLVKCSHERSIHLFIDSLLNEENPSKAYRCSSKEAFEKGLCLSCRKNRCNNLGYEINKVRAKRSSKMYLKTRSQMPYKVFHYQVKIHFSGTESETHTNQAFEISLYGTVAESENIPFTLPEVSTNKTYSFLIYTEVDIGELLMLKLKWKSDSYFSWSDWWSSPGFAIQKIRVKAGETQKKVIFYSREKVSHLQKGKAPAVFVKCHDKSLNKKSG [C445Y]

Variants of: B2
Settings: with lipl_human LPL, P06858

effect of a mutation on the interaction | Variant
disrupting interaction strength | MKALGAVLLALLLFGRPGRGQTQQEEEEEDEDHGPDDYDEEDEDEVEEEETNRLPGGRSRVLLRCYTCKSLPRDERCNLTQNCSHGQTCTTLIAHGNTESGLLTTHSTSCTDSCQPITKTVEGTQVTMTCCQSSLCNVPPWQSSRVQDPTGKGAGGPRGSSETVGAALLLNLLAGLGAMGARRP [W109S]
